B1: ZNF263 (parent)
chain: FAHSSNLLRHQRIHTGERPYKCPE

Variants of: B1
Test: protein stability index of a GFP-peptide fusion (GPS, HEK-293T) (PSI 1-6); higher = more stable
Details: c terminus: a fixed tail appended
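Also: lentivirally expressed fusions sorted by FACS into six bins by GFP to DsRed ratio, PSI derived from sequencing read proportions per bin multiplied by bin number.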

Protein stability index of substitutions, site by site:
Q11: H 2.5; L 1.69; I 1.31; V 2.14; A 1.61; G 2.18; C 3.7; K 2.03; R 2.2; E 2.56; M 1.84; P 1.79; D 2.98; T 2.28; N 3.13; Y 2.49; S 1.98; F 1.48
H14: K 2.08; F 2.16; E 2.73; A 2.99; N 2.71; G 2.59; V 2.34; R 2.18; W 3.6; D 2.81; C 3.21; M 3; S 2.46; L 2.57; Y 1.9; Q 2.98; T 1.91; I 2.57; P 3.05
C22: F 2.08; D 3.74; E 3.37; G 2.36; A 3.1
G16: A 2.37; L 2.07; K 2.23; V 2.1; F 1.37; S 1.97; P 2.37; C 2.36; I 2.22; M 1.88; Q 2.01; Y 1.93; E 2.67; N 2.43; T 2.56; H 2.02; W 1.32; D 2.77; R 1.57
R18: D 3.28; S 2.35; W 2.66; G 2.54; I 2.21; N 2.45; C 2.23; E 3.36; A 2.68; P 2.45; T 2.27; Y 1.86; V 2.46; Q 2.36; L 2.39; H 2.52; F 2.16; M 2.2; K 2.09
L8: N 2.8; P 2.78; S 3.14; V 2.55; I 2.71; Q 2.97; D 3.05; C 2.13; R 2.53; H 2.01; T 3.04; K 2.46; F 1.8; G 2.35; Y 2.78; A 2.37; M 2.68; E 3.3; W 2.64
R12: S 2.8; C 2.54; V 2.73; A 2.91; Q 3.09; F 2.17; I 2.33; H 3.01; T 2.48; D 3.3; E 2.95; W 1.87; N 2.84; P 2.38; M 2.52; G 2.72; Y 2.1; L 2.44; K 2.56
P19: R 2.9; W 1.83; I 2.38; L 2.65; F 2.74; H 2.89; D 3.71; C 2.48; Q 3.17; Y 2.58; A 2.54; M 3.05; V 2.67; K 3.02; N 2.75; S 2.69; G 2.59; E 3.67; T 3.02
R9: F 2.06; V 2.58; H 2.85; Y 2.36; G 2.45; E 3.23; C 2.68; T 2.9; K 2.93; P 3.19; N 2.85; Q 2.87; M 3.05; I 2.21; S 2.63; A 2.39; D 2.62; L 2.88
N6: H 2; A 1.77; K 2.17; C 1.4; Y 1.63; D 2.41; L 1.58; M 2.15; F 1.73; W 3.04; V 1.91; E 2.62; P 1.98; G 2.21; R 1.99; Q 2.49; I 1.56; T 2.3; S 2.27
Y20: W 2.75; G 3.32; A 3.51; L 2.81; P 3.02; F 2.77; Q 3.48; M 2.72; R 2.91; S 3.31; E 3.68; D 3.46; V 3.48; C 2.37; K 3.43; N 3.29; T 3.38; I 2.63; H 3.23
S4: N 2.7; Y 2.45; W 2.62; Q 2.06; R 2.07; T 2.13; V 2.24; P 2.62
S5: P 2.25; D 2.87; L 1.96; H 1.81; G 1.74; Y 2.13; F 1.94; E 2.75; A 2.04; C 2.02; T 2.7; N 2.3; I 2.31; M 2.28; R 2.44; V 2.12; W 2.24; Q 2.15; K 1.91
I13: R 2.39; D 3.09; N 2.99; T 2.82; E 3.23; S 2.68; P 3.22; C 2.46; Q 2.83; W 1.99; M 2.12; Y 2.43; K 2.68; F 2.14; G 2.91; H 2.77; V 2.13; L 2.07; A 2.85
E17: R 1.95; S 2.29; Y 1.47; W 2.16; M 1.98; Q 2.86; G 1.81; F 1.95; K 1.44; C 1.65; P 2.63; I 2.29; A 2.31; D 1.91; L 2.04; T 2.19; H 2.47; V 2.44; N 1.8
T15: V 2.68; F 2.58; E 2.24; W 1.6; Y 2.23; P 1.87; M 2.36; C 1.95; H 2.12; A 1.97; K 1.99; R 2.5; D 2.56; Q 2.19; L 2.36; N 2.36; G 2.19; I 2.29; S 2.65
L7: E 3.14; I 2.2; N 2.93; T 2.45; C 2.08; W 2.48; K 2.54; M 2.39; V 2.68; Y 1.6; R 2.58; D 2.75; H 2.94; A 2.83; F 1.84; Q 3.21; P 2.02; G 2.43; S 2.52
H10: T 2.2; E 2.77; P 2.82; S 1.95; I 1.81; Q 2.37; W 1.8; G 2.44; D 3.13; A 2.38; M 1.91; K 1.73; V 1.79; R 1.8; L 1.94; N 2.38; Y 2.51; C 2.76; F 1.69
K21: T 2.83; C 2.56; G 2.21; R 1.97; Y 2.81; L 2.4; S 2.29; M 2.07; W 2.64; I 2.6; P 2.51; D 2.62; A 2.41; V 2.65; Q 2.3; H 2.49; F 2.56; N 3.13; E 2.79
